Values quoted from earlier work as cited in patent US20220259272A1, “PHOTOACTIVE COMPOSITIONS FOR T[…] DELIVERY” (The University of North Carolina at Chapel Hill, priority 2019, published 2022).

Experiments:
[1] = in vivo
[2] = 1 mg/kg, up to 100 mg
[3] = in vivo; remark: listed apart in the source

## tPA: enzyme that activates plasminogen to generate plasmin, which dissolves the clot
[1]
  circulatory lifetime: 5 min
[2]
  catastrophic intracerebral hemorrhage, share of patients: ~10%

## TF: protein that promotes blood clotting in the cascade activating thrombin
[3]
  circulatory half-life: < 1 min
